According to patent US20100261647A1 (ARMAGEN TECHNOLOGIES, published 2010):

Legend:
[1] = molecular target: T1, human insulin receptor extracellular domain (HIR ECD) (human, UniProt P06213 28-956, limits assumed); test: ELISA on plated HIR ECD, detection with biotinylated goat anti-human IgG (H+L)
T1 construct: extracellular domain
Procedure: CHO cells permanently transfected with the HIR ECD were grown in serum free media (SFM), and the HIR ECD was purified with a wheat germ agglutinin affinity column.

[2] = molecular target: T1, human insulin receptor extracellular …; test: competitive ligand binding assay, displacement of [125I]-murine HIRMAb from plated HIR ECD, Scatchard analysis
Procedure: CHO cells transfected with the HIR ECD were grown in serum free media (SFM), and the HIR ECD was purified with a wheat germ agglutinin affinity column.

- EC50 [1]: 0.21 nM
- Ki [2]: 0.63 nM
B1: chimeric HIRMAb (chimeric monoclonal antibody against the human insulin receptor) (antibody, human IgG1, kappa, V domains shown)
VH: QVQLQQSGPELVKPGALVKISCKASGYTFTNYDIHWVKQRPGQGLEWIGWIYPGDGSTKYNEKFKGKATLTADKSSSTAYMHLSSLTSEKSAVYFCAREWAYWGQGTLVTVSA
VL: DIQMTQSPSSLSASLGERVSLTCRASQDIGGNLYWLQQGPDGTIKRLIYATSSLDSGVPKRFSGSRSGSDYSLTISSLESEDFVDYYCLQYSSSPWTFGGGTKMEIKR
notes: Chimeric human IgG1/kappa
